Biological target: human pituitary adenylate cyclase-activating polypeptide type I receptor (human) (UniProt P41586)
Assay: cell-based or functional assay

Sequence of human pituitary adenylate cyclase-activating polypeptide type I receptor (human) (P41586 21-468): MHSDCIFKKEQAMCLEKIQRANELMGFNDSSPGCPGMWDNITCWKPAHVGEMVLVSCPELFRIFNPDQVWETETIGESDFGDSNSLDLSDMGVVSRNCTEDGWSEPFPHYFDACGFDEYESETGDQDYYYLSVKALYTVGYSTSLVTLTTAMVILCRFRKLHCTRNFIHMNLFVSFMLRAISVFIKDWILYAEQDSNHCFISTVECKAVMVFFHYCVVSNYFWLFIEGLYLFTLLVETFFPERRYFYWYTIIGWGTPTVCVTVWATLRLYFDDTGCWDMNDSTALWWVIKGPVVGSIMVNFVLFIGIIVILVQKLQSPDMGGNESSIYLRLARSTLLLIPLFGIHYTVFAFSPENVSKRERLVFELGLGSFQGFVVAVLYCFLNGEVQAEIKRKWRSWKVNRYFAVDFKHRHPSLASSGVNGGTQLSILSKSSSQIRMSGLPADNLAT

HSDAVFTDNYTRLRKQMAVKKYLNSILN (ligand, UniProt P01282 125-152, looked up) [VIP]
PAC1 EC50 (agonist activity): 2.3 nM

From patent US20180362645A1
